T1: ER-body protein NAI2 (Arabidopsis, UniProt Q9LSB4 25-772, limits assumed)
T1 construct: also called AT3G15950
T1 sequence: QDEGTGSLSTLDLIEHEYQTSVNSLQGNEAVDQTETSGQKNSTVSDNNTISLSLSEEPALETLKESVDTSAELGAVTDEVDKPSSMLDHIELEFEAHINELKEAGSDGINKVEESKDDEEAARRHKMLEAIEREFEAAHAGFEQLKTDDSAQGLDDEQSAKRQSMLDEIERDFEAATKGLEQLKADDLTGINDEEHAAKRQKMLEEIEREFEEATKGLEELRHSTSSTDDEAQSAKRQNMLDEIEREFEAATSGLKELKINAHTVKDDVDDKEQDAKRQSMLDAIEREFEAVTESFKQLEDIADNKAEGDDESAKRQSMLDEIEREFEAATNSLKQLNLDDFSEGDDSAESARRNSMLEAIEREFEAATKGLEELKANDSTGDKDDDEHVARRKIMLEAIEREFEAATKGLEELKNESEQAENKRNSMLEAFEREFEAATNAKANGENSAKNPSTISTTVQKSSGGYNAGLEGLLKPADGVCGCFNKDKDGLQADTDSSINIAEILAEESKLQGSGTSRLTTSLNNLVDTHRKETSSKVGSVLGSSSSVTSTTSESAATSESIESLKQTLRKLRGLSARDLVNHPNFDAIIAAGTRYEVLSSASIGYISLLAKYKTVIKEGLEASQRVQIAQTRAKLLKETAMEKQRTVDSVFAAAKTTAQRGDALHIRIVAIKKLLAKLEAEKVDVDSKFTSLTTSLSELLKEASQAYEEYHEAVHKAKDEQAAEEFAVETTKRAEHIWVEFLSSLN


Tests used:
ER-body protein NAI2 = biological target: T1, ER-body protein NAI2; test: yeast two hybrid library screen (AFL1 N-terminus)
Protocol: A yeast two hybrid library was prepared using mRNA from seedlings exposed to −1.2 MPa low water potential stress for 96 h. The library was prepared using the Cloneminer II cDNA construction (Invitrogen) according to the manufacturer's instructions. Yeast two hybrid screening was performed using the ProQuest Two-hybrid system (Invitrogen) following manufacturer's instructions with an N-terminal fragment of AFL1 (amino acids 1 to 208) as bait. The bait fragment was cloned into destination vector pDEST23 and co-transformed into MaV203 along with clones from the cDNA library using LiAc X transformation. […] Colonies that grew on the selective media were re-streaked and subjected to β-galactosidase filter assay to confirm interaction. Out of approximately 8×10⁵ colony forming units screened, clones of PDI5, NAI2, and TSA1 were detected repeatedly. Most of these clones were C-terminal truncations. Full length cDNA clones of PDI5, NAI2 and TSA1 were obtained (using the cloning procedures described above) and confirmed to interact with the AFL1 bait construct in β-galactosidase filter assays.

[1] = biological target: the molecule itself; test: mbSUS split-ubiquitin interaction assay, full length AFL1 with itself
Protocol: Mating-based Split-Ubiquitin System (mbSUS) assays were performed as previously described using vectors and yeast strains obtained from the Arabidopsis Biological Resource Center. Full length AFL1 as well as putative interactors were expressed in yeast strains THY.AP4 and THY.AP5, respectively, by recombinational in vivo cloning and plated on SC-Leu-Met or SC-Trp-Ura-Met (SC/+AHL) plates for selection. The interaction was tested by X-gal agarose overlay assay.

Row | binding result (ER-body protein NAI2) | Binder | binding result [1]
1 | binds | AFL1 N-terminal fragment (amino acids 1 to 208) (other, Yeast two hybrid bait in a ProQuest destination vector (printed as pDEST23); also called AFL1 N-terminus; N-terminal domain of AFL1) MALSKDLMLKCSEDMMSAYKSACEEHPKLKSFDASLQQRTNKMIDSLTVEDKNGSSSPHDAHMELSKHLVEVTQGVADFITEIEDDVWDNQALKYLVLAYFENTKKTLEIFKTIENCVENAEMGQLLIREALAEFEKESAEKDVGGKKKKYEKTLEDLKSFKEMGDPFDGKVLTTQFERIKKQQESLLEEVSETRKKIQDEISNLEKK | 
2 |  | At14a-like1 (AFL1), full length (other, Full-length AFL1; In mbSUS it was a split-ubiquitin fusion expressed in yeast; In BiFC it was a fusion to a YFP half (YFPN or YFPC, the latter MYC-tagged); This entry also stands for native AFL1 in seedling extracts (47 kDa band; co-purified with YFP-AFL1); also called AT3G28270; Full Length AFL1) MALSKDLMLKCSEDMMSAYKSACEEHPKLKSFDASLQQRTNKMIDSLTVEDKNGSSSPHDAHMELSKHLVEVTQGVADFITEIEDDVWDNQALKYLVLAYFENTKKTLEIFKTIENCVENAEMGQLLIREALAEFEKESAEKDVGGKKKKYEKTLEDLKSFKEMGDPFDGKVLTTQFERIKKQQESLLEEVSETRKKIQDEISNLEKKTLITNVVFGAAFAIVAVASIALIATGVGAAAGFGALAAPLLAAGWAGVYTTLDKKKDALNKQLEGLKKVEEIEESVEKGIKTNEEATETVSILVDGLEDRIKNMLKLVDNAIDHEDNEAATRIVLTQISKKVEKLTKKITEVGESVEDHSKLIAKARLQVLQKINR | binds

Reference: US20160090605A1 (ACADEMIA SINICA, published 2016)
